# The DeepSol protein solubility set
# Assay: soluble on expression in E. coli; label from the status in PepcDB or PDB records
row,Sequence,soluble on expression in E. coli
1,MSPLNFTHILTQTVDELSESESYKGLFHQHKDGEPLPSPRVLCDVIELARSILFPGYYGNSTVNSRTINYHIGVNVEKLFNLLTEQILAGLCFGNGDRCDECTEAKREEAARLAAKFISKLPHLRRVLATDVEAAYNGDPAAQSFGEVIFCYPAIKAISNYRIAHELLELGVPLIPRIITEMAHSETGIDIHPGARIGTHFTIDHGTGVVIGATSIIGNNVKLYQGVTLGARSFPLDADGKPIKGIPRHPILEDNVIVYSNATILGRITIGRDATVGGNIWVTENIPAGARIVQTKAKKLEHHHHHH,soluble
2,MKANQLDILIVPGYKGSDPDHWQTRWEKKLSTARRVQQTHWSKPICEEWVNEVKIAIAQSQKPIVIIAHSLGVPTTIHATLKNAEKVRGAFFVAPPDVSNEKIRPKHLMTFGPYHCKKLSFPSVVIASRNDEFCQFSVAEKLAGDWGALFVDAGLSGHINVESGHGPWPEGLMVFSHFLAKI,not soluble
3,AKTPVREILLFDSDEFLQHNAFRAPGAPTLEALRDAEKKVEYFKSIYSNMHKRISTSSTYIDEENLELLNGVTFAFICIDAGTSKKSIVQKLEELDIPFVDVGM,not soluble
4,MAHHHHHHMSYSFVVVPPPVPAATPAFEAHVSTLLRHVPHPTFITCTSYSPYFTSAAAESLAAAADTADESANAMEASVTQQALSYLHQCVAADVGLVLTVTATRATSHAESVQSTQGGDQDSQQHPKQHTSSSSASMVPTTTTLTGASRGGTAAILADFIGRTSAAPATKLGTANSQEATRHRSRGLMVLRGDDGGYTRQCMIAAQKGGASASPPSLSPNPYVDFADGVDLLRFIHSTLRGRDGEAMCEITGDEPAGAAVCLCIGGYPQGHVLDRQWGADAATAAAVPSAQSPLPCQTLASLRFLDEVDTVFADTEAQLRRAQGTHSAPRPPSLESCVEAAEALFARLGAVRRLWTTPSYYPPSVRAACTRRTVANKVFLRPPGTRQCVADSAWDGCGSAGAHVVVTQVITSATEFFDYVEDIRNALRSSVPPARGVPCDRGRDGAAATEARGASVPCLQLRAASALPSSSPSLVIVPGLMAPLRAEQFLRSALQLKVIPSVPFQRALREYEGALHSAVETLRSAVSSNAIDVYAEAKERAEACFQEWMVAITVDIVRDLRARGYTHVNFSAFQYGCGDAVGCVVAALAAEGREEVVEEP,not soluble
5,MGSDKIHHHHHHMSAIAERSKPSEHMPVLPEFTPLERAIINRLQYGLPLTRTPYKDVADELGVSEVTLLKHLQALLDNGTLTRFGPMFHAGEMGGGLTLAAMRIPEQDFANVTEQVNSFPEVAHNYRREHELNMWFVLATETPEGITETIQRIESLTGYTVYNMPKEQEFHVHLHFEV,not soluble
6,MLILDYTKLKVTFMTMHHPNLQQHDRPQAISRSYLDIRHVVKQFGSFTALKEISLSIEKGEFVCFLGPSGCGKTTLLRAIAGLDLPTSGTIHQNQQAITFLPPEQRDFGIVFQSYALFPNLTVEENIAIGLRNQGMSVRDALEKVEQWLEMIGLATSAQKYPSQLSGGQQQRVALARALALSPGLLLLDEPLSALDAKVRTHLREEICQLQRKLGITTIMVTHDQEEALTMADRIVVMNHGVIEQVGTPQEIYQKPASRFVAEFVGTMNFIPVSMASSQQLRIAESLIALPKIENYTPCQGEQFDLAVRPENLELVTRYNEAIPVVIRHLEFLGAFYRVECVFQGERLAPPVYVDLPITQVQTMNLKAGDVRYLALRAGQLRAYRRKVMSTTPAATASCAYAA,not soluble
7,MAHHHHHHMEYDDGEYGRESSVEALAQSQESEQVASAASGLPESSSSAGSAKPSFRILSTRQLAQWARVRHQMDVGCSGNTVWTVSSAKHGNGVLHLMRHHDLNNFWQSDGVLPHVIRIQLGQLTPVEAMAVYVNSAVDQSYSPRVIRVKAGTHNGDMTEVAKADIGAGQECGWVLITLREMAGDDGDDVEGGGPNDGGGGVAAGVRIQHQQQEVRPRQQDGGAPEGGAASSYSPPIPYSEVAAALGHGNHATPSSAGVQTSAAMPRIPRSTSNPADRWLWCTLIDIYICENQFNGRDCHLRGIRLMGPRYEELERVSNADATGTVTCARPLQGGEPLEGTADELQLR,not soluble
8,MGSDKIHHHHHHMNKIVSFFILILVCSCSDRKEHIANILSMNSIDIKTNRINKDEVIARGAFPFEMIDSLFFLFNGDPSSGALVLCESNASELGHFLQKGNGFGECITPGYIGHCNDTIYVSERSRTRRMTYLLSNHNDSLQYKCLEDVSPKMNSEFYYQICRLQSGLFVGARLFGKEHLFTLLDESLDTLTTFARVPIDIEENANNKLAPFIGHLCIDDNTVYYASNDFSYMAAYDILSEKEIKPVFERMYISPIIQKSANGISLDKYKHLLGFGDIRVYQNYIFATYIGKPDITMDQENDISALVPTHLLVFNKDGVPIVKFKFPFKIRSFVFTKSKMYLLDVDCNIESVDLVELWKHLPD,not soluble
9,MGSDKIHHHHHHMKVVIISGGNSPSYTLIKKELRESEYLIAADSGANTLFKYDVFPDYIIGDLDSIKTVALNYYKNRKVSILQYPPEKDYTDTEIAVNKAIDLGATEIVLLGCTGSRIDHLFGNIGMLLKCLKLGVSCVIKDDNNTIFLTETSIKIRGSLGKTFSIIPYSEEISDLTIIGAKYPLNNYKMKIGSAIGISNVFEEEEVKVQFNSGKILIVYPTD,not soluble
10,MKRLQAFKFQLRPGGQQECEMRRFAGACRFVFNRALARQNENHEAGNKYIPYGKMASWLVEWKNATETQWLKDSPSQPLQQSLKDLERAYKNFFRKRAAFPRFKKRGQNDAFRYPQGVKLDQENSRIFLPKLGWMRYRNSRQVTGVVKNVTVSQSCGKWYISIQTESEVSTPVHPSASMVGLDAGVAKLATLSDGTVFEPVNSFQKNQKKLARLQRQLSRKVKFSNNWQKQKRKIQRLHSCIANIRRDYLHKVTTAVSKNHAMIVIEDLKVSNMSKSAAGTVSQPGRNVRAKSGLNRSILDQGWYEMRRQLAYKQLWRGGQVLAVPPAYTSQRCAYCGHTAKENRLSQSKFRCQVCGYTANADVNGARNILAAGHAVLACGEMVQSGRPLKQEPTEMIQATALEHHHHHH,not soluble
11,MPYKNILTLISVNNDNFENYFRKIFLDVRSSGSKKTTINVFTEIQYQELVTLIREALLENIDIGYELFLWKKNEVDIFLKNLEKSEVDGLLVYCDDENKVFMSKIVDNLPTAIKRNLIKDFCRKLS,soluble
12,MGSDKIHHHHHHMPATAYSAIHGRDIRTLKQCPPVVDAMTYGFMVLLPCDVVVDKGTFSWDWQIPEPVTQNHPRAPLSFHTPGQLAGSPFATTGQAALKFNSFWTIEVEDGWSLFATHPVNREDLPFRLVTGLVDSDRFSDGGINFPAVWTEAGFSGVLAKGTPVAQCFAVPRAAPQLEYEVFDEERQASYARTVADVLSTPGVYRKRFRARRGRSTGE,not soluble
13,GPLGSKDTRPQTDDVLNTKGNTFEDFYLKRELLMGIFEAGFEKPSPIQEEAIPVAITGRDILARAKNGTGKTAAFVIPTLEKVKPKLNKIQALIMVPTRELALQTSQVVRTLGKHCGISCMVTTGGTNLRDDILRLNETVHILVGTPGRVLDLASRKVADLSDCSLFIMDEADKMLSRDFKTIIEQILSFLPPTHQSLLFSATFPLTVKEFMVKHLHKPYEINLMEELTLKGITQYYAFVEERQKLHCLNTLFSKLQINQAIIFCNSTNRVELLAKKITDLGYSCYYSHARMKQQERNKVFHEFRQGKVRTLVCSDLLTRGIDIQAVNVVINFDFPKTAETYLHRIGRSGRFGHLGLAINLINWNDRFNLYKIEQELGTEIAAIPATIDKSLYVAENDET,soluble
14,MDANEFHWLMDMLESVEVGLVVLDLDFHVQAWNGFMEHHSGITARQIRDKVLFEVFPDIPEAWLTRKVDAVAMLNTRAFTSWEQRPYLFKFRNTRPITGTEEYMFQNLTISPITAPNGEVEKVCLLVYDVTEFASSKRALERANEQLAKLSMTDRLTGLLNRGTWENLVDAEYERFRRYGQATSLVMFDIDHFKPVNDTYGHLAGDEVIRHTADVTRNNIRQSDSAGRYGGEEFGIILPETDAESARVICERIREAIEKSTVSTSAGDIQYTVSMGIAQLTETPENYMQWMQKADEALYKAKESGRNKVVVSLEHHHHHH,soluble
15,MSLNFTLHTLNGIKLWLVLLLLSGAINVCRADSPRQTINFNRGWKYCQGDFDHAARPGFDDSEWEKIGLPHSFSTPYFMSKDFYVGYGWYRKAFPVKKEILGKKSFLEFDGVFQEAEIFVNGHLAGTHKGGYTGFSIDISAYLKEGKNLVAVRVNNCWRPDLAPRAGEHVFSGGIYRNVRLVIKPPTYIDWYGTWITTPDLAENKGKSGSVHIRTDVCNASGKTDTYRLLTTVVDAQGKEVSSVSTSQVLPDNATYTFEQQTKEIQAPQLWHPNHPALYKVISSLYHGQELIDRYETAFGFRWFEWTADRGFFLNGEHLYFKGANVHQDHAGWGDAVTETGMRRDIRLVKEAGFDLIRGSHYPHSPAFSQACDEIGMLFWAENAFWGIGGHKGDGYWNASAYPVNESDRAEFENSVKAQLKELIRIHRNHPSIIVWSMSNEPFFTAPETINPMRKLLEETVKLSKQLDPTRPAAVGGAQRPLGEKRIDKLGDIAGYNGDGSYIPEFQQPGMPTVVSEYGSTTADRPGEYDPGWGDLAKNNAQNGFPWRSGQAIWCAFDHGSIAGSALGKMGIIDYFRIPKRAWYWYRNAYKGITEGHHHHHH,not soluble
16,MGSDKIHHHHHHMLNWLRTLLGRVRADPDTIPETLWQHTLAQYPFLAQRAAAEQSQLRTLAGQFLAGKEFSGAQGLVVTDEMAVAIAAQACLPVLHLGLDYYDDFKGIVVHPGAMLARREVMDDSGVVHRYSEVLLGEAMERGPVTLSWQDVAAAGESASQGYNVVVHEFIHKIDMRDGTANGCPPLPSRTAREAWQAVMQPAYDDFREQVAMAERFGGAPPWLDSYAATSPAEFFAVTCEAYFVNRPRFAQDFAALAGLFDEYFRRNRLSTQ,not soluble
17,MDLSTGVPVSIQLKTIVQQGNEQKDFFFDLEGQLVKMGDTLYIRYKEELLEDTEPTPVTIKIEPDGHVQLIRAGELRMRLRFGYQEKLDTSYRTPYGLLQISTFTHNLRVSLKDQPMSGKILVDYDLYSQTERIGEYHLELEFTA,not soluble
18,MSLAPLAPLRAHAGRRLTAGLDDATIERLATDHPTLRQAIEAAGSEYALVQAEVADLLDLDEDAQISAVQDGFINFYADDAVTPYVALAARGPWVITLKGAVLYDAGGYGMLGFGHTPEAVLDAMARPQVMANVMTPSLAQRKLDRALRAEIGHTRGGCPFARFMCLNSGSEAVGLAARIVDTNAKLHTDPGARHAGATIKRLVVKGSFHGRTDRPGLYSDSSRKTYSKYLASYRDEDSVIAIAPYDIAALQRAFDEAARNHWFIEAVFLEPVMGEGDPGRALPAEFYAAARTLTRNHGSLLLVDSIQAGLRAHGVLSVVDYPGFEQLDPPDLETYSKALNAAQYPLSVLAVTEQAAQVYRKGTYGNTMTTNPRALDVACATLALFTPQIRDNIRLRGAQALRKLEALQAELGGLITKVQGTGLLFSCELAPQYKCYGAGSTEEWLRHHGVNVIHGGENSLRFTPHFGMDEAELDLLVGLIAKALKEGPRQAQAEAEGHHHHHH,soluble
19,MYQVIRMYGAMEPWWFLDDWKEDITKVLEFDNYHEALQCYQKEWAKLRRRYSDFNSHGDIMTAFWNKQDQHWCEECGDYVQRYHSLALLTDWQETPSSWFRPTFTKQNDTPFRSKCFIKQKNEQGQNLEHHHHHH,not soluble
20,MGSDKIHHHHHHMDIIREITPLSEKDCFYIVDRRKTEFTYPIHCHSEYELNFIEHAPGVRRVVGDSAEVIGEYELVLITGKELEHVWEQNACKSPLIHEITIQFSPDLFGKNLLEKNQFNSIRKMLEKAQCGISFPMSSILKVYHLLEKLVSEEQSFYAVINFLTILYELSVEENYKVLASSSFAKITDIHSESRRIQKVQNYINERYQQDIRLNQLAELVGMAPSAFSRFFKLRTGKTLSDYITDIRIGYAARMLVDTQRSIAEICYDCGFNNLSNFNRIFKKKKNCSPKEFRDNYKKTKIIV,not soluble
21,DPQPDPLQPDVYLLVNARAAHTNGEESINMDAEDFEDRVHSLAMLVFDSNTGEKVAEHFSSSIGSGTSTYVFTVKLKPGQRD,not soluble
